Measured values reported in patent US20220332804A1 (CSL INNOVATION, published 2022).
Positions count from the first letter of the chain named.

Experiments:
Test in all cases: SPR, KD relative to WT C2;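 note: biacore SPR at 37 °C, anti-C2 mAbs captured via immobilised goat anti-human IgG, C2 alanine or serine surface mutants as analytes, 1:1 model fitted, double-referenced sensograms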
human C2 V418A = target: T1, human C2 V418A (human, UniProt P06681 21-752)
T1 sequence: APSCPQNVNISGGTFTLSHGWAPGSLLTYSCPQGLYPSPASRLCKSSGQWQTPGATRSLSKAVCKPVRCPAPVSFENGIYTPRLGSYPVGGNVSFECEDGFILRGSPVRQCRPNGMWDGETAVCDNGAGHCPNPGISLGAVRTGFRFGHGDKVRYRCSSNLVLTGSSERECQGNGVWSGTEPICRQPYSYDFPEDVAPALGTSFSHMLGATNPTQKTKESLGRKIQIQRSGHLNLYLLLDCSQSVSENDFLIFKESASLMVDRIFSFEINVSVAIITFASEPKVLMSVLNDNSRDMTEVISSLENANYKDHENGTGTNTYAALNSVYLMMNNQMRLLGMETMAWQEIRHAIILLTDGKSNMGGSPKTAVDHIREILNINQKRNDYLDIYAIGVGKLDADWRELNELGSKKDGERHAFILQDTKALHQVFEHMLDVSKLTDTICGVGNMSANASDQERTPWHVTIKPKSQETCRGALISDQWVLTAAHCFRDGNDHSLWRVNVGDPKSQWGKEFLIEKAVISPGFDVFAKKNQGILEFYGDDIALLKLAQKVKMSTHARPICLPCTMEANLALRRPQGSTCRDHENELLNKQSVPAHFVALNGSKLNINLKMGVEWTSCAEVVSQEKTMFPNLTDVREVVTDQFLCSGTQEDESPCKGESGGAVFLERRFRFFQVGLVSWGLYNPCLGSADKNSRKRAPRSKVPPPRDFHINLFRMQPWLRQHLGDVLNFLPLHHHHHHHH

[1] = target: T2, human complement C2 (wild type) (human, UniProt P06681 21-752)
T2 construct: Full-length human C2 (NP_000054) with C-terminal 8x His tag, secreted from Expi293F cells and purified from the supernatant; also called WT; huC2
T2 sequence: T1 sequence with A398V

human C2 D561A = target: T3, human C2 D561A (human, UniProt P06681 21-752)
T3 sequence: T1 sequence with A398V, D541A

B1: RF16-226 (antibody, human IgG4 S228P, lambda)
heavy: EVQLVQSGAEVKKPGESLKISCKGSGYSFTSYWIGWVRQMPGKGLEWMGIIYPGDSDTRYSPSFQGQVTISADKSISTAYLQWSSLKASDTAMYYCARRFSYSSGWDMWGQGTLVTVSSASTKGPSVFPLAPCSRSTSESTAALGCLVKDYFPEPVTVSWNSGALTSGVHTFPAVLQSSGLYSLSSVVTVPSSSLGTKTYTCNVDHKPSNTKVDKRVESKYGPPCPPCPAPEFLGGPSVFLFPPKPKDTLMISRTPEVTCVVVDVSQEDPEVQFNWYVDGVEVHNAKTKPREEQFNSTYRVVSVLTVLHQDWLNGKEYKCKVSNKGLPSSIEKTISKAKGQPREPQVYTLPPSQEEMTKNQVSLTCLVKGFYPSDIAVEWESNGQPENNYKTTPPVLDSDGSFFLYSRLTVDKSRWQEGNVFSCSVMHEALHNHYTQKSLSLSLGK
light: SYELTQPPSVSVSPGQTARITCSGDALTSKYVAWYQQKSGLAPLLVIYEDTRRPSGIPAKFSGSSSGSVATLTISGAHGDDEADYYCYSTDASGHQRVFGGGTKLTVLSQPKAAPSVTLFPPSSEELQANKATLVCLISDFYPGAVTVAWKADGSPVKAGVETTKPSKQSNNKYAASSYLSLTPEQWKSHRSYSCQVTHEGSTVEKTVAPTECS
notes: pH-dependent anti-C2 antibody from a phage display library; also called WT
Human C2 V418A
  Fold diff: 1 fold
[1]
  Fold diff: 1 fold
Human C2 D561A
  Fold diff: 10 fold
